According to paper PMC4222680:

Legend:
[1] = molecular target: TDG G199S G199S (human (rs4135113 variant)) (UniProt Q13569); experiment: EMSA; settings: tetrahydrofuran abasic analog (X, written N) at position 17 of strand 2, opposite A12 of strand 1; 20 mM HEPES pH 7.3, 1 mM EDTA, 10 mM (NH4)2SO4, 1 mM DTT, 0.2% Tween-20, 30 mM KCl; 2 nM DNA, 30 min at room temperature; 6% native PAGE at 4 C
[2] = molecular target: TDG WT (human) (UniProt Q13569); experiment: EMSA; settings: tetrahydrofuran abasic analog (X, written N) at position 17 of strand 2, opposite A12 of strand 1; 20 mM HEPES pH 7.3, 1 mM EDTA, 10 mM (NH4)2SO4, 1 mM DTT, 0.2% Tween-20, 30 mM KCl; 2 nM DNA, 30 min at room temperature; 6% native PAGE at 4 C
TDG WT (human), sequence (Q13569 whole entry): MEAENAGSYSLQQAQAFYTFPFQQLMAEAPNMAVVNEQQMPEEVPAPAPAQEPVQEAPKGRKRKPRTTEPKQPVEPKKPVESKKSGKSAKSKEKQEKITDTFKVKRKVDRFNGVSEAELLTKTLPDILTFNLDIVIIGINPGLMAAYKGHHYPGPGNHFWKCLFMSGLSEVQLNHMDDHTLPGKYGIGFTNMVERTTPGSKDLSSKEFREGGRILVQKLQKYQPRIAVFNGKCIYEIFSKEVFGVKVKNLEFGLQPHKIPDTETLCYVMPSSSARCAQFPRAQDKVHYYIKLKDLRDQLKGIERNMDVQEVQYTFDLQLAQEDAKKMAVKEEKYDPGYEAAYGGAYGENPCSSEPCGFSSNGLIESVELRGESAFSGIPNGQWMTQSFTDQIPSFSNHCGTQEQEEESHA

TDG G199S G199S (human (rs4135113 variant)), sequence (Q13569 whole entry G199S): as the sequence (Q13569 whole entry) above, with G199S counted along it

“CAGCTCTGTACATGAGCAGTGGTGACAC / GTGTCACCACTGCTCANGTACAGAGCTG [28-mer THF:A]” showed a Kd [1] of 35 nM and a Kd [2] of 153 nM.
